Source: patent US20180016327A1 (Chugai, published 2018)

B1: CFP0018 (antibody, V domains shown)
VH: QVQLVQSGAEVKKPGSSVKVSCKASGGTFSSYAISWVRQAPGQGLEWMGGIIPIFGTANYAQKFQGRVTITADESTSTAYMELSSLRSEDTAVYYCARQLYGYYELDIWGQGTLVTVSS
VL: DIQMTQSPSSLSASVGDRVTITCRASQSISDDLAWYQQKPGKAPKLLIYEASSLQSGVPSRFSGSGSGTDFTLTISSLQPEDFATYYCQQYNSYPLTFGQGTKVEIK
notes: IgG format
B2: CFP0017 17L 91H (antibody, V domains shown)
VH: QVQLVQSGAEVKKPGSSVKVSCKASGGTFSSYAISWVRQAPGQGLEWMGGIIPIFGTANYAQKFQGRVTITADESTSTAYMELSSLRSEDTAVYYCARGGWWGGALDYWGQGTLVTVSS
VL: DIQMTQSPSSLSASVGDRVTITCRASQSIEDDLAWYQQKPGKAPKLLIYHASSLQSGVPSRFSGSGSGTDFTLTISSLQPEDFATYYCQQHDSYPLTFGQGTKVEIK
B3: CFP0017 17L 92N (antibody, V domains shown)
VH: QVQLVQSGAEVKKPGSSVKVSCKASGGTFSSYAISWVRQAPGQGLEWMGGIIPIFGTANYAQKFQGRVTITADESTSTAYMELSSLRSEDTAVYYCARGGWWGGALDYWGQGTLVTVSS
VL: DIQMTQSPSSLSASVGDRVTITCRASQSIEDDLAWYQQKPGKAPKLLIYHASSLQSGVPSRFSGSGSGTDFTLTISSLQPEDFATYYCQQSNSYPLTFGQGTKVEIK
B4: CFP0017 17L 50A (antibody, V domains shown)
VH: QVQLVQSGAEVKKPGSSVKVSCKASGGTFSSYAISWVRQAPGQGLEWMGGIIPIFGTANYAQKFQGRVTITADESTSTAYMELSSLRSEDTAVYYCARGGWWGGALDYWGQGTLVTVSS
VL: DIQMTQSPSSLSASVGDRVTITCRASQSIEDDLAWYQQKPGKAPKLLIYAASSLQSGVPSRFSGSGSGTDFTLTISSLQPEDFATYYCQQSDSYPLTFGQGTKVEIK
B5: CFP0017 17L 30A (antibody, V domains shown)
VH: QVQLVQSGAEVKKPGSSVKVSCKASGGTFSSYAISWVRQAPGQGLEWMGGIIPIFGTANYAQKFQGRVTITADESTSTAYMELSSLRSEDTAVYYCARGGWWGGALDYWGQGTLVTVSS
VL: DIQMTQSPSSLSASVGDRVTITCRASQSIADDLAWYQQKPGKAPKLLIYHASSLQSGVPSRFSGSGSGTDFTLTISSLQPEDFATYYCQQSDSYPLTFGQGTKVEIK
B6: CFP0017 17L 30D (antibody, V domains shown)
VH: QVQLVQSGAEVKKPGSSVKVSCKASGGTFSSYAISWVRQAPGQGLEWMGGIIPIFGTANYAQKFQGRVTITADESTSTAYMELSSLRSEDTAVYYCARGGWWGGALDYWGQGTLVTVSS
VL: DIQMTQSPSSLSASVGDRVTITCRASQSIDDDLAWYQQKPGKAPKLLIYHASSLQSGVPSRFSGSGSGTDFTLTISSLQPEDFATYYCQQSDSYPLTFGQGTKVEIK
B7: CFP0017 17L 30S (antibody, V domains shown)
VH: QVQLVQSGAEVKKPGSSVKVSCKASGGTFSSYAISWVRQAPGQGLEWMGGIIPIFGTANYAQKFQGRVTITADESTSTAYMELSSLRSEDTAVYYCARGGWWGGALDYWGQGTLVTVSS
VL: DIQMTQSPSSLSASVGDRVTITCRASQSISDDLAWYQQKPGKAPKLLIYHASSLQSGVPSRFSGSGSGTDFTLTISSLQPEDFATYYCQQSDSYPLTFGQGTKVEIK
B8: CFP0018 18L 30A (antibody, V domains shown)
VH: QVQLVQSGAEVKKPGSSVKVSCKASGGTFSSYAISWVRQAPGQGLEWMGGIIPIFGTANYAQKFQGRVTITADESTSTAYMELSSLRSEDTAVYYCARQLYGYYELDIWGQGTLVTVSS
VL: DIQMTQSPSSLSASVGDRVTITCRASQSIADDLAWYQQKPGKAPKLLIYEASSLQSGVPSRFSGSGSGTDFTLTISSLQPEDFATYYCQQYNSYPLTFGQGTKVEIK
B9: CFP0017 17L 92S (antibody, V domains shown)
VH: QVQLVQSGAEVKKPGSSVKVSCKASGGTFSSYAISWVRQAPGQGLEWMGGIIPIFGTANYAQKFQGRVTITADESTSTAYMELSSLRSEDTAVYYCARGGWWGGALDYWGQGTLVTVSS
VL: DIQMTQSPSSLSASVGDRVTITCRASQSIEDDLAWYQQKPGKAPKLLIYHASSLQSGVPSRFSGSGSGTDFTLTISSLQPEDFATYYCQQSSSYPLTFGQGTKVEIK
B10: CFP0017 17L 30H (antibody, V domains shown)
VH: QVQLVQSGAEVKKPGSSVKVSCKASGGTFSSYAISWVRQAPGQGLEWMGGIIPIFGTANYAQKFQGRVTITADESTSTAYMELSSLRSEDTAVYYCARGGWWGGALDYWGQGTLVTVSS
VL: DIQMTQSPSSLSASVGDRVTITCRASQSIHDDLAWYQQKPGKAPKLLIYHASSLQSGVPSRFSGSGSGTDFTLTISSLQPEDFATYYCQQSDSYPLTFGQGTKVEIK
B11: CFP0017 17L 91Y (antibody, V domains shown)
VH: QVQLVQSGAEVKKPGSSVKVSCKASGGTFSSYAISWVRQAPGQGLEWMGGIIPIFGTANYAQKFQGRVTITADESTSTAYMELSSLRSEDTAVYYCARGGWWGGALDYWGQGTLVTVSS
VL: DIQMTQSPSSLSASVGDRVTITCRASQSIEDDLAWYQQKPGKAPKLLIYHASSLQSGVPSRFSGSGSGTDFTLTISSLQPEDFATYYCQQYDSYPLTFGQGTKVEIK
B12: CFP0018 18L 30D (antibody, V domains shown)
VH: QVQLVQSGAEVKKPGSSVKVSCKASGGTFSSYAISWVRQAPGQGLEWMGGIIPIFGTANYAQKFQGRVTITADESTSTAYMELSSLRSEDTAVYYCARQLYGYYELDIWGQGTLVTVSS
VL: DIQMTQSPSSLSASVGDRVTITCRASQSIDDDLAWYQQKPGKAPKLLIYEASSLQSGVPSRFSGSGSGTDFTLTISSLQPEDFATYYCQQYNSYPLTFGQGTKVEIK
B13: CFP0017 (antibody, V domains shown)
VH: QVQLVQSGAEVKKPGSSVKVSCKASGGTFSSYAISWVRQAPGQGLEWMGGIIPIFGTANYAQKFQGRVTITADESTSTAYMELSSLRSEDTAVYYCARGGWWGGALDYWGQGTLVTVSS
VL: DIQMTQSPSSLSASVGDRVTITCRASQSIEDDLAWYQQKPGKAPKLLIYHASSLQSGVPSRFSGSGSGTDFTLTISSLQPEDFATYYCQQSDSYPLTFGQGTKVEIK
notes: IgG format
B14: CFP0017 17L 91R (antibody, V domains shown)
VH: QVQLVQSGAEVKKPGSSVKVSCKASGGTFSSYAISWVRQAPGQGLEWMGGIIPIFGTANYAQKFQGRVTITADESTSTAYMELSSLRSEDTAVYYCARGGWWGGALDYWGQGTLVTVSS
VL: DIQMTQSPSSLSASVGDRVTITCRASQSIEDDLAWYQQKPGKAPKLLIYHASSLQSGVPSRFSGSGSGTDFTLTISSLQPEDFATYYCQQRDSYPLTFGQGTKVEIK
B15: CFP0018 18L 30E (antibody, V domains shown)
VH: QVQLVQSGAEVKKPGSSVKVSCKASGGTFSSYAISWVRQAPGQGLEWMGGIIPIFGTANYAQKFQGRVTITADESTSTAYMELSSLRSEDTAVYYCARQLYGYYELDIWGQGTLVTVSS
VL: DIQMTQSPSSLSASVGDRVTITCRASQSIEDDLAWYQQKPGKAPKLLIYEASSLQSGVPSRFSGSGSGTDFTLTISSLQPEDFATYYCQQYNSYPLTFGQGTKVEIK
B16: CFP0017 17L 50E (antibody, V domains shown)
VH: QVQLVQSGAEVKKPGSSVKVSCKASGGTFSSYAISWVRQAPGQGLEWMGGIIPIFGTANYAQKFQGRVTITADESTSTAYMELSSLRSEDTAVYYCARGGWWGGALDYWGQGTLVTVSS
VL: DIQMTQSPSSLSASVGDRVTITCRASQSIEDDLAWYQQKPGKAPKLLIYEASSLQSGVPSRFSGSGSGTDFTLTISSLQPEDFATYYCQQSDSYPLTFGQGTKVEIK

These binders were tested against T1, human C5 (human, UniProt P01031 19-673; P01031 678-1676, Beta and alpha chains are disulfide-linked and the protein is glycosylated.) (assay: Biacore, captured antibody, pH 7.4, 37 C;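 also: biacore binding response of anti-C5 antibody light chain variants captured on chip with human C5 injected, ACES running buffer containing 1.2 mM CaCl₂, parent light chain antibody set to 100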).
T1 construct: Either in-house recombinant C5 or plasma derived C5 (CALBIOCHEM) was used; also called recombinant human C5; plasma derived human C5
In the case of B1, the “% binding (parent = 100)” value is reported as 100%.
In the case of B2, the “% binding (parent = 100)” value is reported as 21.8%.
With B3 the “% binding (parent = 100)” value was 36.4%.
In the case of B4, the “% binding (parent = 100)” value is reported as 3.3%.
With B5 the “% binding (parent = 100)” value was 79.9%.
For B6, the “% binding (parent = 100)” value was 89.4%.
B7 was tested, and the “% binding (parent = 100)” value was 79.1%.
With B8 the “% binding (parent = 100)” value was 21.2%.
B9 was tested, and the “% binding (parent = 100)” value was 79%.
B10 was tested, and the “% binding (parent = 100)” value was 52.1%.
In the case of B11, the “% binding (parent = 100)” value is reported as 0.3%.
In the case of B12, the “% binding (parent = 100)” value is reported as 17%.
B13 was tested, and the “% binding (parent = 100)” value was 100%.
In the case of B14, the “% binding (parent = 100)” value is reported as -4%.
B15 was tested, and the “% binding (parent = 100)” value was 20.8%.
With B16 the “% binding (parent = 100)” value was 1%.
